# According to patent US20050124544A1:
# Where no end group is shown, it is not given here.
# How the values were obtained:
# [1] = target: 2C11 human monoclonal antibody; assay: competition ELISA: 2C11 preincubated with peptide at 0.002 (µM per paragraph 93), then on immobilised FVIII
# [2] = target: 2C11 human monoclonal antibody; assay: competition ELISA: 2C11 preincubated with peptide at 0.02 (µM per paragraph 93), then on immobilised FVIII
# [3] = target: 2C11 human monoclonal antibody; assay: competition ELISA: 2C11 preincubated with peptide at 20 (µM per paragraph 93), then on immobilised FVIII
# [4] = target: 2C11 human monoclonal antibody; assay: competition ELISA: 2C11 preincubated with peptide at 2 (µM per paragraph 93), then on immobilised FVIII
# [5] = target: 2C11 human monoclonal antibody; assay: competition ELISA: 2C11 preincubated with peptide at 200 (µM per paragraph 93), then on immobilised FVIII
# [6] = target: 2C11 human monoclonal antibody; assay: cell-based or functional assay
% inhibition [1] [%],% inhibition [2] [%],% inhibition [3] [%],% inhibition [4] [%],% inhibition [5] [%],"Bethesda test: neutralization of the inhibiting activity of 2C11 (3.5 nM), IC50 [6] [µM]",Bethesda test: peptide concentration for total neutralization of 2C11 (3.5 nM) [6] [µM],in vivo (FVIII-deficient mice): procoagulant activity of injected FVIII kept with 2C11 (16.7 nM) plus peptide 107 (650 µM) [6] [%],Binder
0,0,22,0,36.6,,,,Ac-CMKWSNRSSRWC (cysteine pairing not given here) [peptide 106 (…)]
0,0,37.5,12.5,75,,,,Ac-RCHAWSNRKSCV (cysteine pairing not given here) [peptide 109 (…)]
0,0,80,37.3,90.5,19,100,52,Ac-SCHAWSNRRTCR (cysteine pairing not given here) [peptide 107 (…)]
0,0,26,15.8,60.7,,,,Ac-QCHTWSNRRSCL (cysteine pairing not given here) [peptide 108 (…)]

# Second part, the binder before the results:
Binder,% inhibition [1] [%],% inhibition [2] [%],% inhibition [3] [%],% inhibition [4] [%],% inhibition [5] [%],"Bethesda test: neutralization of the inhibiting activity of 2C11 (3.5 nM), IC50 [6] [µM]",Bethesda test: peptide concentration for total neutralization of 2C11 (3.5 nM) [6] [µM],in vivo (FVIII-deficient mice): procoagulant activity of injected FVIII kept with 2C11 (16.7 nM) plus peptide 107 (650 µM) [6] [%]
Ac-CSKWHNRSKRHC (cysteine pairing not given here) [peptide 105 (…)],0,0,45,10.3,75.6,,,
Ac-KCGRWSNRSSCT (cysteine pairing not given here) [peptide 103 (…)],0,0,28.3,3.47,62.7,,,
Ac-ECGSHAWGRRCK (cysteine pairing not given here) [peptide 104 (…)],0,0,30.7,13.4,63.7,,,
